# Target: recombinant WU2 (r)PspA possessing only αHD and PRD (Streptococcus pneumoniae serotype 3 strain WU2)
# Assay: SPR
substance,measurement,value
recombinant lactoferrin (LF) (from UniProt P02788 20-710) (natural protein),Kd,3.89 nM

# From paper PMC10557681
